Measurements from US20090098103A1.

Experiments:
Experiment in all cases: cell-based or functional assay
[1] = biological target: FVIIa variant CB589 D196R/K197M/K199E (human) (UniProt P08709)
[2] = biological target: FVIIa variant CB588 D196R/K197E/K199E/R290E (human) (UniProt P08709)
[3] = biological target: FVIIa variant CB558 K197E (human) (UniProt P08709)
[4] = biological target: FVIIa variant CB568 R290A (human) (UniProt P08709)
[5] = biological target: FVIIa variant CB692 K197E/G237V/M298Q/K341Q (human) (UniProt P08709)
[6] = biological target: FVIIa variant CB600 D196F (human) (UniProt P08709)
[7] = biological target: FVIIa variant CB564 K199A (human) (UniProt P08709)
[8] = biological target: FVIIa variant CB590 D196R/K197M/K199E/R290E (human) (UniProt P08709)
[9] = biological target: FVIIa variant CB701 R290V (human) (UniProt P08709)
[10] = biological target: FVIIa variant CB734 K341M (human) (UniProt P08709)
[11] = biological target: FVIIa variant CB591 L305V/S314E/L337A/F374Y (human) (UniProt P08709)
[12] = biological target: FVIIa variant CB596 K197V (human) (UniProt P08709)
[13] = biological target: FVIIa variant CB637 K197E/K341Q (human) (UniProt P08709)
[14] = biological target: FVIIa variant CB587 D196K/K197E/K199E (human) (UniProt P08709)
[15] = biological target: wild-type Factor VII polypeptide (CB553-02), activated (FVIIa) (human) (UniProt P08709)
[16] = biological target: FVIIa variant CB608 G237V (human) (UniProt P08709)
[17] = biological target: FVIIa variant CB611 D196L/K197L (human) (UniProt P08709)
[18] = biological target: FVIIa variant CB698 R290Q (human) (UniProt P08709)
[19] = biological target: FVIIa variant CB601 D196Y (human) (UniProt P08709)
[20] = biological target: FVIIa variant CB594 V158D/E296V/M298Q/K337A (human) (UniProt P08709)
[21] = biological target: FVIIa variant CB562 K199D (human) (UniProt P08709)
[22] = biological target: FVIIa variant CB671 K197E/G237V/K341Q (human) (UniProt P08709)
[23] = biological target: FVIIa variant CB559 K197A (human) (UniProt P08709)
[24] = biological target: FVIIa variant CB599 K197M (human) (UniProt P08709)
[25] = biological target: FVIIa variant CB638 K197L/K341Q (human) (UniProt P08709)
[26] = biological target: FVIIa variant CB699 R290K (human) (UniProt P08709)
[27] = biological target: FVIIa variant CB565 T239A (human) (UniProt P08709)
[28] = biological target: FVIIa variant CB604 D196I (human) (UniProt P08709)
[29] = biological target: FVIIa variant CB689 K197E/G237V (human) (UniProt P08709)

Substance: Human Recombinant TFPI (R&D Systems) (from UniProt P10646 29-282)
- IC50 of TFPI inhibition of FVIIa/TF [1]: 44 nM
- TFPI fold resistance (fold vs wild-type FVIIa) [1]: 0.6
- pIC50 of TFPI inhibition of FVIIa/TF [1]: 7.4
- IC50 of TFPI inhibition of FVIIa/TF [2]: 28 nM
- TFPI fold resistance (fold vs wild-type FVIIa) [2]: 0.4
- pIC50 of TFPI inhibition of FVIIa/TF [2]: 7.6
- IC50 of TFPI inhibition of FVIIa/TF [3]: 310 nM
- TFPI fold resistance (fold vs wild-type FVIIa) [3]: 1.3
- pIC50 of TFPI inhibition of FVIIa/TF [3]: 6.5
- IC50 of TFPI inhibition of FVIIa/TF [4]: 200 nM
- TFPI fold resistance (fold vs wild-type FVIIa) [4]: 2.8
- pIC50 of TFPI inhibition of FVIIa/TF [4]: 6.7
- TFPI fold resistance (fold vs wild-type FVIIa) [5]: 15.2
- TFPI fold resistance (fold vs wild-type FVIIa) [6]: < 0.3
- IC50 of TFPI inhibition of FVIIa/TF [7]: 68 nM
- TFPI fold resistance (fold vs wild-type FVIIa) [7]: 0.9
- pIC50 of TFPI inhibition of FVIIa/TF [7]: 7.2
- IC50 of TFPI inhibition of FVIIa/TF [8]: 66 nM
- TFPI fold resistance (fold vs wild-type FVIIa) [8]: 0.9
- pIC50 of TFPI inhibition of FVIIa/TF [8]: 7.2
- TFPI fold resistance (fold vs wild-type FVIIa) [9]: 2.5
- TFPI fold resistance (fold vs wild-type FVIIa) [10]: 4.4
- IC50 of TFPI inhibition of FVIIa/TF [11]: 43 nM
- TFPI fold resistance (fold vs wild-type FVIIa) [11]: 0.6
- pIC50 of TFPI inhibition of FVIIa/TF [11]: 7.4
- TFPI fold resistance (fold vs wild-type FVIIa) [12]: 0.6
- TFPI fold resistance (fold vs wild-type FVIIa) [13]: 80.7
- IC50 of TFPI inhibition of FVIIa/TF [14]: 20 nM
- TFPI fold resistance (fold vs wild-type FVIIa) [14]: 0.3
- pIC50 of TFPI inhibition of FVIIa/TF [14]: 7.7
- IC50 of TFPI inhibition of FVIIa/TF [15]: 88 nM
- TFPI fold resistance (fold vs wild-type FVIIa) [15]: 1
- pIC50 of TFPI inhibition of FVIIa/TF [15]: 7.1
- TFPI fold resistance (fold vs wild-type FVIIa) [16]: 0.8
- TFPI fold resistance (fold vs wild-type FVIIa) [17]: < 0.3
- TFPI fold resistance (fold vs wild-type FVIIa) [18]: 1.2
- TFPI fold resistance (fold vs wild-type FVIIa) [19]: < 0.3
- IC50 of TFPI inhibition of FVIIa/TF [20]: 22 nM
- TFPI fold resistance (fold vs wild-type FVIIa) [20]: 0.3
- pIC50 of TFPI inhibition of FVIIa/TF [20]: 7.7
- IC50 of TFPI inhibition of FVIIa/TF [21]: 63 nM
- TFPI fold resistance (fold vs wild-type FVIIa) [21]: 0.9
- pIC50 of TFPI inhibition of FVIIa/TF [21]: 7.2
- TFPI fold resistance (fold vs wild-type FVIIa) [22]: 18.9
- IC50 of TFPI inhibition of FVIIa/TF [23]: 53 nM
- TFPI fold resistance (fold vs wild-type FVIIa) [23]: 0.7
- pIC50 of TFPI inhibition of FVIIa/TF [23]: 7.3
- TFPI fold resistance (fold vs wild-type FVIIa) [24]: 0.3
- TFPI fold resistance (fold vs wild-type FVIIa) [25]: 39
- TFPI fold resistance (fold vs wild-type FVIIa) [26]: 0.6
- IC50 of TFPI inhibition of FVIIa/TF [27]: 320 nM
- TFPI fold resistance (fold vs wild-type FVIIa) [27]: 4.5
- pIC50 of TFPI inhibition of FVIIa/TF [27]: 6.5
- TFPI fold resistance (fold vs wild-type FVIIa) [28]: < 0.3
- TFPI fold resistance (fold vs wild-type FVIIa) [29]: 1.7
